From publication PMC12292245, “Probing the Active Site of Class 3 L-Asparaginase by Mutagenesis: Mutations of the Ser-Lys Tandems of ReAV” (Biomolecules, 2025)

B1: ReAV R47A mutant (Rhizobium etli Class 3, type V L-asparaginase) (enzyme)
chain: MTPSEDFVVTDRGGIVENSHRVHAAVVDAKGRLLYALGNPTRMTLAASAAKPAQALAILETEGVAGYGFDDADIALMCASHSSEDRHIARTRAMLSKIKAEEADLRCGGHPSLSEMVNRSWIKQDFIPTAVCSNCSGKHVGMLAGARAIGAGTDGYHLPDHPMQGRVKRTVAELCDLDAGDVEWGTDGCNLPTPAFPLDRLGRIYAKLASAADGSDAGEGQSTRCAALAHIFRAMARHPEMVAGEGRYCTMLMRAFDGALVGKLGADASYAIGVRASDATRQLGTDGALGISVKIEDGNLEMLYAVVTELLERLGIGSPDVRSQLASFHHPQRVNTMGVTTGGVSFPFKLRGSKSNVDDPRLAAVAR
notes: ReAV, inducible thermolabile type V L-asparaginase of Rhizobium etli; Homodimer; source: E. coli BL21-Gold (DE3), purified (HisTrap, TEV digestion, second HisTrap, Superdex 200)
B2: ReAV K263A mutant (Rhizobium etli Class 3, type V L-asparaginase) (enzyme)
chain: MTPSEDFVVTDRGGIVENSHRVHAAVVDAKGRLLYALGNPTRMTLARSAAKPAQALAILETEGVAGYGFDDADIALMCASHSSEDRHIARTRAMLSKIKAEEADLRCGGHPSLSEMVNRSWIKQDFIPTAVCSNCSGKHVGMLAGARAIGAGTDGYHLPDHPMQGRVKRTVAELCDLDAGDVEWGTDGCNLPTPAFPLDRLGRIYAKLASAADGSDAGEGQSTRCAALAHIFRAMARHPEMVAGEGRYCTMLMRAFDGALVGALGADASYAIGVRASDATRQLGTDGALGISVKIEDGNLEMLYAVVTELLERLGIGSPDVRSQLASFHHPQRVNTMGVTTGGVSFPFKLRGSKSNVDDPRLAAVAR
modifications: Cys249 chemically modified, modeled as S-hydroxycysteine
notes: ReAV, inducible thermolabile type V L-asparaginase of Rhizobium etli; Homodimer; Zn2+ at occupancy 0.8 in the crystal; source: E. coli BL21-Gold (DE3), purified (HisTrap, TEV digestion, second HisTrap, Superdex 200)
B3: ReAV S80A mutant (Rhizobium etli Class 3, type V L-asparaginase) (enzyme)
chain: MTPSEDFVVTDRGGIVENSHRVHAAVVDAKGRLLYALGNPTRMTLARSAAKPAQALAILETEGVAGYGFDDADIALMCAAHSSEDRHIARTRAMLSKIKAEEADLRCGGHPSLSEMVNRSWIKQDFIPTAVCSNCSGKHVGMLAGARAIGAGTDGYHLPDHPMQGRVKRTVAELCDLDAGDVEWGTDGCNLPTPAFPLDRLGRIYAKLASAADGSDAGEGQSTRCAALAHIFRAMARHPEMVAGEGRYCTMLMRAFDGALVGKLGADASYAIGVRASDATRQLGTDGALGISVKIEDGNLEMLYAVVTELLERLGIGSPDVRSQLASFHHPQRVNTMGVTTGGVSFPFKLRGSKSNVDDPRLAAVAR
modifications: Cys249 most likely oxidized, modeled as cysteinesulfinic acid
notes: ReAV, inducible thermolabile type V L-asparaginase of Rhizobium etli; Homodimer; source: E. coli BL21-Gold (DE3), purified (HisTrap, TEV digestion, second HisTrap, Superdex 200); mostly in inclusion bodies, about 10 mg/L recovered from the cell lysate
B4: ReAV K51A mutant (in fact the double mutant K51A/H238Y; Rhizobium etli Class 3, type V L-asparaginase) (enzyme)
chain: MTPSEDFVVTDRGGIVENSHRVHAAVVDAKGRLLYALGNPTRMTLARSAAAPAQALAILETEGVAGYGFDDADIALMCASHSSEDRHIARTRAMLSKIKAEEADLRCGGHPSLSEMVNRSWIKQDFIPTAVCSNCSGKHVGMLAGARAIGAGTDGYHLPDHPMQGRVKRTVAELCDLDAGDVEWGTDGCNLPTPAFPLDRLGRIYAKLASAADGSDAGEGQSTRCAALAHIFRAMARYPEMVAGEGRYCTMLMRAFDGALVGKLGADASYAIGVRASDATRQLGTDGALGISVKIEDGNLEMLYAVVTELLERLGIGSPDVRSQLASFHHPQRVNTMGVTTGGVSFPFKLRGSKSNVDDPRLAAVAR
notes: ReAV, inducible thermolabile type V L-asparaginase of Rhizobium etli; the crystallised protein carries the unintended second mutation H238Y; Homodimer; Zn2+ at occupancy 0.5 in the crystal; source: E. coli BL21-Gold (DE3), purified (HisTrap, TEV digestion, second HisTrap, Superdex 200)
B5: ReAV S48A mutant (Rhizobium etli Class 3, type V L-asparaginase) (enzyme)
chain: MTPSEDFVVTDRGGIVENSHRVHAAVVDAKGRLLYALGNPTRMTLARAAAKPAQALAILETEGVAGYGFDDADIALMCASHSSEDRHIARTRAMLSKIKAEEADLRCGGHPSLSEMVNRSWIKQDFIPTAVCSNCSGKHVGMLAGARAIGAGTDGYHLPDHPMQGRVKRTVAELCDLDAGDVEWGTDGCNLPTPAFPLDRLGRIYAKLASAADGSDAGEGQSTRCAALAHIFRAMARHPEMVAGEGRYCTMLMRAFDGALVGKLGADASYAIGVRASDATRQLGTDGALGISVKIEDGNLEMLYAVVTELLERLGIGSPDVRSQLASFHHPQRVNTMGVTTGGVSFPFKLRGSKSNVDDPRLAAVAR
notes: ReAV, inducible thermolabile type V L-asparaginase of Rhizobium etli; Homodimer; Zn2+ at occupancy 0.7 in the crystal; source: E. coli BL21-Gold (DE3), purified (HisTrap, TEV digestion, second HisTrap, Superdex 200)

Molecular target: the molecule itself
Experiment: crystal structure; hanging-drop vapor diffusion at 19 °C, protein 15-21 mg/mL with 0.5-1% v/v DDM; data at 100 K; molecular replacement with WT ReAV PDB 7os5; dimers in the asymmetric unit

Binding result, binds:
B1
B2
B3
B4
B5
